Data: the supplement of paper PMC12764529
± gives the half width of the 95% confidence interval.

assay: folding stability dG unfold (combined trypsin and chymotrypsin); higher = more stable
Method in brief: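 Mini-proteins designed to be under 80 residues and free of cysteine were carried in a PA-tagged cDNA display construct and digested with trypsin and with chymotrypsin. Each protease was applied at 11 threefold-diluted concentrations, alongside a no-protease condition, before sequencing. K50 came from Bayesian fitting of the sequencing counts, and unfolding free energy was obtained by comparing it with a sequence-predicted unfolded-state K50 and a shared folded-state K50, for each protease separately or for both together. Designs were retained only if their AlphaFold2 dimer inter-PAE exceeded 15.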

Sequence	folding stability dG unfold [kcal/mol]
SKTIYFPIPNDDPEEAVEWIADKLLEEHGHKIKDVEIPHKNGYYVRIEVDPNNPKIDIEVWPYDPDGEPLSA [r9_173_TrROS]	0.534 ± 0.52
SAGGAIGPEEAERLAQEIADRLAAEFREAEPDVEVEVEAEVFPPEGVIRVRPRLPDGRLLAEVTFPVGSAGG [r13_247_TrMRF]	0.0873 ± 0.067
SPVAVVTYEDGSVSEVPFTHPDGRAYDLSRGPGDVATLTVTRLLPDGSLEPLPTVPFTSEAEAEAYLAAASA [r9_942_JUSTAS]	-0.231 ± 0.074
SAMKIEIEVPSLEQVKKLEKLLPDKYKISEVKVDPETKKVYVIIELDPSLSPEEVAKLEKEFEEVVKEESAG [r14_306_TrMRF]	5.14 ± 0.58
SAGGSAGGDKVTIESFHPENWYFRIRYPGNGKPISFPIKSVDELLDKIEPSGLPVEIEWMPPEESAGGSAGG [r6_33_TrROS]	-0.0248 ± 0.32
SAGGPNFMFRVKMPHPRPKKDPEDGKEKWRPQRHEHTVPFPADDPEQALDELADNMPPNNFKITDITSAGGS [r16_459_TrROS]	-0.0582 ± 0.18
SAGGSAGGSAGGMRITIDDWDPDEGPYRVKVTNPDNNKKKTMPYENLEELAKEGPVEIHRSAGGSAGGSAGG [r7_452_TrROS]	-0.143 ± 0.13
SAGGSAGGSAGGGPPVERVTTETILRPDGTTTTTRKTTVVPPTDTVTTTTTTLTTTPVTSAGGSAGGSAGGS [r10_1139_JUSTAS]	0.0441 ± 0.18
SSTSMSTEPNRTVTTTTEKGGRSTVTTTTTTTFTASGETTTTTPVTTTTPPPPLGVYKDPAGVTRTRPLLSA [r9_456_JUSTAS]	-0.012 ± 0.072
SIIIPPKESAEEVLNEIKELLPPGRKYKITVFNPENGRMHEADFDPKKGNIEVEPHPFPNGPPFLMIERKSA [r9_1059_TrROS]	-0.42 ± 0.49
SAGGSAGGSAGGSKVPPGAKITVERHDGGYRTVEIRPPNGKPVEIMMPEDDADEIADQISAGGSAGGSAGGS [r4_16_TrROS]	< -1
SAGGSAGGSAGGKKKVKILEVKKIPELNEIVVVIETENGKPVLVPLKPGKTLEDVKKEISAGGSAGGSAGGS [r10_984_TrMRF]	0.44 ± 0.21
SAGGSAGGSAGGMVKKTYEKKKPPGSMEYVTEKEYDPKTNTVKTTTVPVSEYKNIPNKNSAGGSAGGSAGGS [r10_1077_JUSTAS]	< -1
SAGGSAGGSENAALENPFANRPPIPPVRAVLYDPDGTPRVLEGRSLEEIRRYAEERGVVVDISSAGGSAGGS [r12_244_TrMRF]	-0.165 ± 0.075
SAGGSAGGSAGGQPLLARPNDEPIVEVEISETTTLLPNGTVVTTYSVPKKGILTTVTLVSAGGSAGGSAGGS [r10_160_JUSTAS]	< -1
SAGGSAGGSAGGSPFWRIKIENPGNGKEITVMVPPDDIDKAKEEAEQEGLKKIEIEPVPSAGGSAGGSAGGS [r4_102_TrROS]	-0.993 ± 0.7
SAGGMTTTTTLEVAPDTPYEAALAEIEAALAAAAAGRPVASSPVAARPGGARTLPLVVTDGAVTALGSAGGS [r8_7_JUSTAS]	0.35 ± 0.07
SAGGSAGGSAGEAASSLKLPPVTLTTPPVPVELPPGLTVESVEPVRTPSGETILVVNLVRSAGGSAGGSAGG [r11_388_JUSTAS]	-0.349 ± 0.19

Sequence	folding stability dG unfold [kcal/mol]
SAGGSAGGSAGGKPTIKLKVTITNENGEKIEIEVEAESEEEALEALKALLPPGWKVEIESAGGSAGGSAGGS [r10_145_TrROS_Hall]	4.21 ± 0.67
SAGGSAGGSAGGPEIKPFDSLEEVVEEIKKNPNKERIYLLPDSVIYTLKEDKILKIEPLKSAGGSAGGSAGG [r7_532_TrMRF]	< -1
SAGGSAGGSMSTVSTSTTYFPDKKVTTTTTVTPTPDGTTATTPSVTVTPLPPPNPPPAPFNRLSAGGSAGGS [r20_30_JUSTAS]	-0.351 ± 0.36
SAGGSAGGSDKDVKIKVDPERTPDGNYYYRIEIENGKEINIHMPPENMTPEDAKDFVKDIIKKSAGGSAGGS [r12_218_TrROS]	< -1
SAGGSAGGPPPVRVTIETETTTTFPNGTPRTTTNTVVLDAPEEEAEAAVAAIPASVVKSVARTGSAGGSAGG [r6_985_JUSTAS]	-0.187 ± 0.24
SAGKMTIEIVVEVKPGMTEEELKEKLEELVKKLKEEFPELKNLEIKIVEVKVERLEDGTLRVTVKIEVKSAG [r5_985_TrROS_Hall]	> 6
SMTIKELLKAHPGQPVEDLAKRIMDEMNANFPNGMPIKINLEYDPGGIKVDVEMWNNDKPQTDEFTIRPDSA [r9_805_TrROS]	-0.000922 ± 0.15
SAGGSAGGSAGGMKVTVEYPDALSVEVEPDSATTTYPNGSRIVVEAPGVTTYDPLPPERSSAGGSAGGSAGG [r7_30_JUSTAS]	-0.39 ± 0.24
SAGGSAGGSMNVKKVESEKDTGDGSTLTTNTVELPSNIIIVEPVLTPPSGNPQTTTKILPKGLSAGGSAGGS [r12_407_JUSTAS]	-0.5 ± 0.18
SAGGSAGGAPVYVTTDTRERADPNGSTVRTSLVRDPNGPATYRVTETVPPDGSVASTTTAVPGASAGGSAGG [r6_839_JUSTAS]	< -1
SAGGSAGGSAGGDVNSPNIPPVLTVEPVEVLDPGGGGLRRRVVYVAPGGIVLETEERPESAGGSAGGSAGGS [r10_261_JUSTAS]	0.156 ± 0.16
SAGGSAGGVEELAKKLNIEVTGNEVTITLKKKKVTVKKLKAPPLKVKKYVDKKTKKIVKTEVELSAGGSAGG [r6_981_TrROS_Hall]	0.431 ± 0.29
SAGGSAGGSEPRLILTTFPLPEPGEPVLRLLVIGEDRILAVRVVGEKPELRELDRLDDLLAEQSAGGSAGGS [r12_299_TrMRF]	< -1
SAGGSAGGALTPTDEVTLTLPDGTVRPGRVEVLPDNVVRVRLEGSEVLLTRDPEGDEVTVERVASAGGSAGG [r6_68_JUSTAS]	0.503 ± 0.047
SAGGSAGGSVEELLAAATSEDPAKGLARAELPSGATATVDPAAGTVTITFTSPGTPSTTTVPAPSAGGSAGG [r6_793_JUSTAS]	< -1
SAGGSAGGSMKTVKPTELLASLSPEEEVILTTPTSATRLTVEEVKNVPEDTPVDVEVVPRNAASAGGSAGGS [r12_501_JUSTAS]	0.244 ± 0.051
SAGGMLITEEDLAALLAAVPPERPDAVVTLTVGRLQRILPGSTGENEPIPSSVEPSVVTLPVTVPPASAGGS [r16_708_JUSTAS]	< -1
SAGGSAGGMREIEHEIPNPNGRNIKIKIEYDPDQGWHPVEIENPGNGKKKTYPFDSADEVLDQLSAGGSAGG [r6_465_TrROS]	0.0475 ± 0.17
